Laboratory results reported in patent US20180280496A1.
Several values for one entry are separate records, joined by “and”; a condition that tells them apart may be missing. Identical values can stand only once. Like-named read-outs stand apart in the source and are kept apart here.

Key:
A*24:02 (human), P04439 [1] = experiment: ProImmune REVEAL MHC class I-peptide binding assay
A*02:01 (human), P04439 [2] = experiment: ProImmune REVEAL MHC class I-peptide binding assay
A*11:01 (human), P04439 [3] = details: modification not given
A*11:01 (human), P04439 [4] = experiment: ProImmune REVEAL MHC class I-peptide binding assay
H-2Kb (mouse), P01901 = molecular target: T1, H-2Kb (mouse), P01901; experiment: ProImmune REVEAL MHC class I-peptide binding assay
T1 chain: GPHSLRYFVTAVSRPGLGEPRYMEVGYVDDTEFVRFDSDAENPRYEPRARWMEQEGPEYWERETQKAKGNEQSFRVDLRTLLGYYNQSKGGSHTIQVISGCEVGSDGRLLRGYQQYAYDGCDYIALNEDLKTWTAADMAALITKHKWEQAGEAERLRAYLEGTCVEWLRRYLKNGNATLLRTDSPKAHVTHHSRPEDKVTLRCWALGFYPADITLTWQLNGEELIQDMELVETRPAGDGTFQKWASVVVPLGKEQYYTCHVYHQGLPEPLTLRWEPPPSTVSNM

B*07:02 (human), P01889 = experiment: ProImmune REVEAL MHC class I-peptide binding assay
A*02:01 (human), P04439 [5] = experiment: ProImmune REVEAL MHC class I-peptide binding assay, A*02:01
B*27:05 (human), P01889 = experiment: ProImmune REVEAL MHC class I-peptide binding assay
A*11:01 (human), P04439 [6] = details: modification not given; remark: listed apart in the source
A*24:02 (human), P04439 [7] = details: modification not given
A*24:02 (human), P04439 [8] = details: modification not given; remark: listed apart in the source
A*02:01 (human), P04439 [9] = details: chains peptide; modification not given
A*11:01 (human), P04439 [10] = details: modification not given; remark: listed apart in the source
HLA-B*40:01 = details: chains peptide; modification not given
HLA-B*15:01 = details: chains peptide; modification not given
HLA-A*32:01 = details: chains peptide; modification not given
A*03:01 (human), P04439 = details: modification not given
A*11:01 (human), P04439 [11] = details: modification not given; remark: listed apart in the source
A*02:01 (human), P04439 [12] = details: chains peptide; modification not given; remark: listed apart in the source
A*24:02 (human), P04439 [13] = details: modification not given; remark: listed apart in the source
A*24:02 (human), P04439 [14] = details: modification not given; remark: listed apart in the source
A*11:01 (human), P04439 [15] = details: modification not given; remark: listed apart in the source

Binder: WTEAKMLLD (modifications not checked)
- REVEAL score at 0 h (A*24:02 (human), P04439 [1]): 94.7

Binder: GLYGNGVVT (modifications not checked)
- REVEAL score at 0 h (A*02:01 (human), P04439 [2]): 87.7

Binder: HWTEAKMLL (modifications not checked)
- REVEAL score at 0 h (A*24:02 (human), P04439 [1]): 103

Binder: VTFKNPHAK [SEQ ID NO: 309 serotype 2]
- IC50 (A*11:01 (human), P04439 [3]): 17 nM

Binder: MGEAAAIFM (modifications not checked)
- REVEAL score at 0 h (A*02:01 (human), P04439 [2]): 50.6

Binder: TVWFVPSIK (modifications not checked)
- REVEAL score at 0 h (A*11:01 (human), P04439 [4]): 92.2

Binder: GTYGLNTFT (modifications not checked)
- REVEAL score at 0 h (A*11:01 (human), P04439 [4]): 63.6

Binder: YGLNTFTNM (modifications not checked)
- REVEAL score at 0 h (H-2Kb (mouse), P01901): 75.4

Binder: LMYFHRRDL (modifications not checked)
- REVEAL score at 0 h (A*02:01 (human), P04439 [2]): 97.8
- REVEAL score at 0 h (H-2Kb (mouse), P01901): 54.9
- REVEAL score at 0 h (B*07:02 (human), P01889): 120

Binder: TALTGATEI (modifications not checked)
- REVEAL Score (A*02:01 (human), P04439 [5]): 0.9

Binder: IPERSWNSG (modifications not checked)
- REVEAL score at 0 h (B*07:02 (human), P01889): 45.2

Binder: FKLTYQNKV (modifications not checked)
- REVEAL score at 0 h (B*27:05 (human), P01889): 53.7

Binder: VTFKTAHAK [SEQ ID NO: 309 serotype 1]
- IC50 (A*11:01 (human), P04439 [6]): 16 nM

Binder: QQRVFKEKV (modifications not checked)
- REVEAL score at 0 h (H-2Kb (mouse), P01901): 63.4

Binder: SYTMCSGKF [SEQ ID NO: 308 serotype 4]
- IC50 (A*24:02 (human), P04439 [7]): 222 nM

Binder: LMRRGDLPV (modifications not checked)
- REVEAL score at 0 h (A*02:01 (human), P04439 [2]): 82.3
- REVEAL score at 0 h (B*07:02 (human), P01889): 179

Binder: PERVILAGP (modifications not checked)
- REVEAL score at 0 h (B*07:02 (human), P01889): 56.1

Binder: LMCHATFTM (modifications not checked)
- REVEAL score at 0 h (A*24:02 (human), P04439 [1]): 99.5
- REVEAL score at 0 h (A*02:01 (human), P04439 [2]): 72.9
- REVEAL score at 0 h (H-2Kb (mouse), P01901): 59
- REVEAL score at 0 h (B*27:05 (human), P01889): 98.2

Binder: GEAAAIFMT (modifications not checked)
- REVEAL score at 0 h (A*24:02 (human), P04439 [1]): 58.9
- REVEAL score at 0 h (A*02:01 (human), P04439 [2]): 74.3
- REVEAL score at 0 h (A*11:01 (human), P04439 [4]): 50.3

Binder: FKPGTSGSP (modifications not checked)
- REVEAL score at 0 h (H-2Kb (mouse), P01901): 45.7
- REVEAL score at 0 h (B*07:02 (human), P01889): 50.4

Binder: SYAMCLNTF [SEQ ID NO: 308 serotype 3]
- IC50 (A*24:02 (human), P04439 [8]): 540 nM

Binder: ATFTMRLLS (modifications not checked)
- REVEAL score at 0 h (H-2Kb (mouse), P01901): 55.6
- REVEAL score at 0 h (A*11:01 (human), P04439 [4]): 58.5

Binder: VVAAEMEEA (modifications not checked)
- REVEAL score at 0 h (A*02:01 (human), P04439 [2]): 92.2

Binder: LAPTRVVAA (modifications not checked)
- REVEAL score at 0 h (H-2Kb (mouse), P01901): 102

Binder: RRGDLPVWL (modifications not checked)
- REVEAL score at 0 h (B*27:05 (human), P01889): 145

Binder: YFHRRDLRL (modifications not checked)
- REVEAL score at 0 h (A*24:02 (human), P04439 [1]): 87.5

Binder: SRNSTHEMY (modifications not checked)
- REVEAL score at 0 h (B*07:02 (human), P01889): 52

Binder: ISGDDCVVK (modifications not checked)
- REVEAL score at 0 h (A*11:01 (human), P04439 [4]): 88.7

Binder: RQWFFDLPL (modifications not checked)
- IC50 (A*02:01 (human), P04439 [9]): 12 nM and 39 nM
- REVEAL Score (A*02:01 (human), P04439 [5]): 80.5

Binder: VTFKVPHAK [SEQ ID NO: 309 serotype 4]
- IC50 (A*11:01 (human), P04439 [10]): 14 nM

Binder: AISGDDCVV (modifications not checked)
- REVEAL score at 0 h (A*02:01 (human), P04439 [2]): 91.1

Binder: LSRNSTHEM (modifications not checked)
- REVEAL score at 0 h (H-2Kb (mouse), P01901): 51.1
- REVEAL score at 0 h (B*07:02 (human), P01889): 124

Binder: IVDLMCHAT (modifications not checked)
- REVEAL score at 0 h (A*02:01 (human), P04439 [2]): 62.7

Binder: RQWFFDLPL [SEQ ID NO: 310 serotype 3]
- IC50 (HLA-B*40:01): 51 nM
- IC50 (HLA-B*15:01): 80 nM
- IC50 (HLA-A*32:01): 7 nM

Binder: HATFTMRLL (modifications not checked)
- REVEAL score at 0 h (H-2Kb (mouse), P01901): 69.5

Binder: ALTLHWFRK [SEQ ID NO: 311 serotype 4]
- IC50 (A*03:01 (human), P04439): 34 nM
- IC50 (A*11:01 (human), P04439 [11]): 47 nM

Binder: MWHVTRGAV (modifications not checked)
- REVEAL score at 0 h (A*02:01 (human), P04439 [2]): 62.7

Binder: KQWFLDLPL (modifications not checked)
- IC50 (A*02:01 (human), P04439 [12]): 11 nM
- REVEAL Score (A*02:01 (human), P04439 [5]): 86

Binder: PLSRNSTHE (modifications not checked)
- REVEAL score at 0 h (B*07:02 (human), P01889): 65

Binder: VGTYGLNTF (modifications not checked)
- REVEAL score at 0 h (A*24:02 (human), P04439 [1]): 96

Binder: SYVMCTGSF [SEQ ID NO: 308 serotype 1]
- IC50 (A*24:02 (human), P04439 [13]): 104 nM

Binder: SYSMCTGKF [SEQ ID NO: 308 serotype 2]
- IC50 (A*24:02 (human), P04439 [14]): 115 nM

Binder: VTFKNAHAK [SEQ ID NO: 309 serotype 3]
- IC50 (A*11:01 (human), P04439 [15]): 17 nM

Binder: KLTYQNKVV (modifications not checked)
- REVEAL score at 0 h (A*02:01 (human), P04439 [2]): 92.3

Binder: ARGYISTRV (modifications not checked)
- REVEAL score at 0 h (B*27:05 (human), P01889): 125

Binder: CHATFTMRL (modifications not checked)
- REVEAL score at 0 h (A*24:02 (human), P04439 [1]): 75.9
- REVEAL score at 0 h (H-2Kb (mouse), P01901): 60.3
